Source: US20140107315A1

How the values were obtained:
[1] = target: human immunoglobulin G drug separated from human plasma (Gammagard, Baxter) (human); experiment: SPR (Biacore 3000), human IgG immobilized on CM5 chip, ligand as analyte, 25 C, pH 7.4, 1:1 model
[2] = target: human immunoglobulin G drug separated from human plasma (Gammagard, Baxter) (human); experiment: SPR (Biacore) as in Example 3, human IgG immobilized on chip, 1:1 model
[3] = target: human IgG (Gamma globulin, Nichiyaku) (human); experiment: affinity chromatography, ligand immobilized on HiTrap NHS-activated HP (6.5 mg/mL-gel), 1 mg/mL human IgG at 1.9 mL/min, 5% breakthrough

Ka [1]	Ka [2]	5% antibody dBC [3]	Substance
2.7e+07 M⁻¹			C-K04R/K07E/G29A/K35R/K42R/K49R/K50H/K58G.1d (designed binder)
1.1e+07 M⁻¹			C-K04R/K07E/G29A/K35R/K42R/K49R/K50R/K58G.1d (designed binder)
4.8e+07 M⁻¹			C-K04R/K07R/G29A/K35R/K42R/K49R/K50R/K58G.1d (from pGEX-2T, Example 2) (designed binder)
1.3e+07 M⁻¹			C-K04R/K07D/G29A/K35R/K42R/K49R/K50H/K58G.1d (designed binder)
	2.2e+07 M⁻¹	25.7 mg/mL-gel	C-K04R/K07R/G29A/K35R/K42R/K49R/K50R/K58G.1d with Ser-Lys added at the C terminal (Brevibacillus, Example 4) (designed binder)
3.3e+07 M⁻¹			C-K04R/K07R/G29A/K35R/K42R/K49Q/K50R/K58G.1d (designed binder)
